B1: R2HCD26 (VHH)
VHH: QVQLQESGGGLVQAGGSLRLSCAASGFTFDDYAIGWFRQAPGKEREGVSCIRVSDGSTYYADPVKGRFTISSDNAKNTVYLQMNSLKPEDAAVYYCAAGSLYTCVQSIVVVPARPYYDMDYWGKGTQVTVSS
notes: not shown: His tag (His-tagged VHHs); the vectors described carry His6 at the C-terminus; exact junction of the tested form not sta
B2: R3HCD27 (VHH)
VHH: QVQLQESGGGSVQPGGSLRLSCAASGFTFDDYAMSWVRQVPGKGLEWVSTINWNGGSAEYAEPVKGRFTISRDNAKNTVYLQMNSLKLEDTAVYYCAKDADLVWYNLSTGQGTQVTVSS
notes: as for B1
B3: R3HCD129 (VHH)
VHH: QVQLQESGGGLVQPGGSLRLSCAASGFTFDDYAMSWVRQVPGKGLEWVSTINWNGGSAEYAEPVKGRFTISRDNAKNTVYLQMNSLKLEDTAVYYCAKDADLVWYNLRTGQGTQVTVSS
notes: as for B1

Target: T1, His6-tagged extracellular domain of human CD8A (human, UniProt P01732 22-182)
T1 construct: extracellular domain; coated on the solid phase for panning and for the ELISA screening; also called Hiss-tagged extracellular domain of human CD8A; not shown: His tag
T1 sequence (P01732 22-182): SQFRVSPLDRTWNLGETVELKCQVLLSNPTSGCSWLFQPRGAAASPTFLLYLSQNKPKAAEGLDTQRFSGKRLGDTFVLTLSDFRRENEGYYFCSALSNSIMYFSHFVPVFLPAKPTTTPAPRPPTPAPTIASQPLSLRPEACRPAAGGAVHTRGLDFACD
Test: ELISA, crude periplasmic extracts on coated His-tagged extracellular domain of human CD8A
Description: Three consecutive rounds of panning of a VHH library were performed on solid-phase coated Hiss-tagged extracellular domain of human CD8A (200 μg/ml, 20 μg/well). The enrichment for antigen-specific phages was assessed after each round of panning by comparing the number of phagemid particles eluted from antigen-coated wells with the number of phagemid particles eluted from only-blocked wells (negative control wells). […] 285 colonies (95 & 190 from 2nd and 3rd rounds, respectively) were randomly selected and analyzed by ELISA for the presence of antigen-specific VHHs in their periplasmic extracts (ELISA using crude periplasmic extracts including soluble VHHs). The antigen used for the ELISA screening was the same as the one used for immunization and panning. Out of these 285 colonies, 64 colonies (3 and 61 from 2nd and 3rd rounds of panning, respectively) scored positive in this assay. Based on sequence data, the 64 positive colonies represented 16 different VHHs. The 16 different VHHs belong to 6 different CDR3 groups. Table 2 below provides a description of 3 clones representing the 3 different anti-human CD8A VHH genes. E. coli TG1 harboring recombinant phagemid pMECS containing anti-human CD8A VHH sequences was generated and stored at −80° C. The vector pMECS codes for ampicillin resistance.

Binding result, binds:
B1
B2
B3

From patent publication US20190071500A1 (ORIONIS BIOSCIENCES, published 2019)
